Results: paper PMC3166298, “Phosphorylation Alters the Interaction of the Arabidopsis Phosphotransfer Protein AHP1 with Its Sensor Kinase ETR1” (PLoS ONE, 2011)

How the values were obtained:
Settings in all cases: both partners purified
[1] = molecular target: T1, ethylene receptor ethylene response 1 (ETR1), wild type (Arabidopsis, UniProt P49333 1-738); experiment: fluorescence polarisation; wild type ETR1 pre-incubated with 0.1 mM copper chloride, added to wild type AHP1-GFP; with 100 uM potassium cyanide; 50 mM Tris-HCl pH 7.5, 100 mM KCl, 0.1% beta-D-dodecylmaltoside, 0.002% PMSF
T1 construct: Solubilised in beta-D-dodecylmaltoside; also called sensor kinase ETR1; AtETR1
T1 sequence (looked up): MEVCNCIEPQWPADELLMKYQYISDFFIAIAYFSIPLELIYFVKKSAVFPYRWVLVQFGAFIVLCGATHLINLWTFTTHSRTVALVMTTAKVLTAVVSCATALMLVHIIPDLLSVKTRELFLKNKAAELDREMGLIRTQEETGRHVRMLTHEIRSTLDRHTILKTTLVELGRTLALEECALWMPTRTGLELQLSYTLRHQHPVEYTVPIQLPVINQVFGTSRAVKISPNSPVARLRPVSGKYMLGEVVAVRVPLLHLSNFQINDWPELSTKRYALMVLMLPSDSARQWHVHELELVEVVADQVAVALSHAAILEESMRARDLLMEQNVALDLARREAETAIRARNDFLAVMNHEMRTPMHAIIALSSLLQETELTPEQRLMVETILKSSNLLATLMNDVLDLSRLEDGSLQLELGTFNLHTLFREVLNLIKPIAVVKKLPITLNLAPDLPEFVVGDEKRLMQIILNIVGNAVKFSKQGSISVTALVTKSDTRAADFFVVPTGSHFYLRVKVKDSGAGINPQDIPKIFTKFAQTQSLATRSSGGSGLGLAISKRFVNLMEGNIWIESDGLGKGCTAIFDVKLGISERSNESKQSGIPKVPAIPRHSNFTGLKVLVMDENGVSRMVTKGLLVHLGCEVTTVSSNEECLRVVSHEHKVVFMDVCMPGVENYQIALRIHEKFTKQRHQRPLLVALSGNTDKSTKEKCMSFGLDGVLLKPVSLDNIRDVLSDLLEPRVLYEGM

[2] = molecular target: T1, ethylene receptor ethylene response 1 …; experiment: fluorescence polarisation; wild type ETR1 pre-incubated with 0.1 mM copper chloride, added to wild type AHP1-GFP; with 100 uM ethephon; 50 mM Tris-HCl pH 7.5, 100 mM KCl, 0.1% beta-D-dodecylmaltoside, 0.002% PMSF
[3] = molecular target: T1, ethylene receptor ethylene response 1 …; experiment: fluorescence polarisation; control: wild type ETR1 and wild type AHP1-GFP with cyanide or ethephon but without the copper cofactor; same buffer

B1: AHP1-GFP(S65T), wild type Arabidopsis histidine-containing phosphotransfer protein 1 fused to green fluorescent protein (natural protein, UniProt Q9ZNV9 1-154, looked up)
chain: MDLVQKQKSLQDYTKSLFLEGILDSQFLQLQQLQDESNPDFVSQVVTLFFQDSDRILNDLSLSLDQQVVDFKKVDPHVHQLKGSSSSIGAQRVKNACVVFRSFCEQQNVEACHRCLQQVKQEYYLVKNRLETLFKLEQQIVASGGMIPAVELGF
notes: AHP1, Arabidopsis histidine-containing phosphotransfer protein 1; Theoretical molecular weight of AHP1-GFP printed as 45.6 kDa; also called wild type AHP1-GFP
- Kd [1]: 9 µM
- Kd [2]: 7.7 µM
- Kd [3]: 1.4 µM
